Laboratory results from publication PMC10786891, “Massively parallel profiling of RNA-targeting CRISPR-Cas13d”.
Numbering of substitutions follows the chain as printed. Names may count otherwise.

T1: EsCas13d, nuclease-dead (Eubacterium siraeum, UniProt B0MS50, R295A;H300A;R849A;H854A)
T1 sequence: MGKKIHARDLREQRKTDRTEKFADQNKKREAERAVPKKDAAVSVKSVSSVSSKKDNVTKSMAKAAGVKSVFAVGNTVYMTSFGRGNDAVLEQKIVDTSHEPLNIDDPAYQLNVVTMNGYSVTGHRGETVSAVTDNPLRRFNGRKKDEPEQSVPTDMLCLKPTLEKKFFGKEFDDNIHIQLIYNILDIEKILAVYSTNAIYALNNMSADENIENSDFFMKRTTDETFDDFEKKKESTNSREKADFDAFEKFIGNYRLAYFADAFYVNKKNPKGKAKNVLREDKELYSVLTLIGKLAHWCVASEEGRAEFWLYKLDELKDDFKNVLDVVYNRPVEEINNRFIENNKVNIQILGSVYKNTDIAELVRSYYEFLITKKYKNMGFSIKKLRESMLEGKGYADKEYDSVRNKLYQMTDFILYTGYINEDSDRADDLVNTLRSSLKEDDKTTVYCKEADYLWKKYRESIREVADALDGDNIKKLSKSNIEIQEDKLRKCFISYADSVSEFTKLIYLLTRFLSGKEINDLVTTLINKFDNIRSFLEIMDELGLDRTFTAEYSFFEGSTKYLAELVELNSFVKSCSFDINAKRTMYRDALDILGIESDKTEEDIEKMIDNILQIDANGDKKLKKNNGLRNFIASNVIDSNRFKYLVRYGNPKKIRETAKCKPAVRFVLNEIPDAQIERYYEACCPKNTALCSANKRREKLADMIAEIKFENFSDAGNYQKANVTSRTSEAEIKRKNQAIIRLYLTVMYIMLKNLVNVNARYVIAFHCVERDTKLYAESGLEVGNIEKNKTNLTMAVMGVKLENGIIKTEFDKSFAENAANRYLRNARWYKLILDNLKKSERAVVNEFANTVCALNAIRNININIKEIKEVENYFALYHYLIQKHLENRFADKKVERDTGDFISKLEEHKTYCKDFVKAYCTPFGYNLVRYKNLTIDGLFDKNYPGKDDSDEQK

B1: target 2 MT 5'PFS CGG 3'PFS CUC (mixed)
RNA 1: CACCCGUGCAAAAUUGCAGGGGUCUAAAACCUUCUCCAAAUUGUUUCAUCCU
RNA 2: GGGAAUGGAUCCACAUCUACGAAUUCCGGAGGAUGAAACAAUUUGGAGAAGCUCAGAUCGGAAGAGCACACGU
B2: target 2 MT 5'PFS UUG 3'PFS ACC (mixed)
RNA 1: B1 RNA 1
RNA 2: B1 RNA 2 with C27U, G28U, C52A, U53C
B3: target 2 MT 5'PFS UUG 3'PFS ACU (mixed)
RNA 1: B1 RNA 1
RNA 2: B1 RNA 2 with C27U, G28U, C52A, U53C, C54U
B4: target 2 MT 5'PFS UAG 3'PFS CUC (mixed)
RNA 1: B1 RNA 1
RNA 2: B1 RNA 2 with C27U, G28A
B5: target 2 MT 5'PFS GCA 3'PFS AUC (mixed)
RNA 1: B1 RNA 1
RNA 2: B1 RNA 2 with C27G, G28C, G29A, C52A
B6: target 2 MT 5'PFS UAG 3'PFS CUG (mixed)
RNA 1: B1 RNA 1
RNA 2: B1 RNA 2 with C27U, G28A, C54G
B7: target 2 MT 5'PFS GGA 3'PFS CGG (mixed)
RNA 1: B1 RNA 1
RNA 2: B1 RNA 2 with C27G, G29A, U53G, C54G
B8: target 2 MT 5'PFS UGU 3'PFS CGC (mixed)
RNA 1: B1 RNA 1
RNA 2: B1 RNA 2 with C27U, G29U, U53G
B9: target 2 MT 5'PFS GCA 3'PFS AUA (mixed)
RNA 1: B1 RNA 1
RNA 2: B1 RNA 2 with C27G, G28C, G29A, C52A, C54A
B10: target 2 MT 5'PFS GAA 3'PFS UCA (mixed)
RNA 1: B1 RNA 1
RNA 2: B1 RNA 2 with C27G, G28A, G29A, C52U, U53C, C54A
B11: target 2 MT 5'PFS UUG 3'PFS ACA (mixed)
RNA 1: B1 RNA 1
RNA 2: B1 RNA 2 with C27U, G28U, C52A, U53C, C54A
B12: target 2 MT 5'PFS GGA 3'PFS CGC (mixed)
RNA 1: B1 RNA 1
RNA 2: B1 RNA 2 with C27G, G29A, U53G
B13: target 2 MT 5'PFS UAA 3'PFS UCC (mixed)
RNA 1: B1 RNA 1
RNA 2: B1 RNA 2 with C27U, G28A, G29A, C52U, U53C
B14: target 2 MT 5'PFS GGG 3'PFS CCG (mixed)
RNA 1: B1 RNA 1
RNA 2: B1 RNA 2 with C27G, U53C, C54G
B15: target 2 MT 5'PFS GUA 3'PFS CCA (mixed)
RNA 1: B1 RNA 1
RNA 2: B1 RNA 2 with C27G, G28U, G29A, U53C, C54A
B16: target 2 MT 5'PFS GGA 3'PFS AAU (mixed)
RNA 1: B1 RNA 1
RNA 2: B1 RNA 2 with C27G, G29A, C52A, U53A, C54U
B17: target 2 MT 5'PFS GGG 3'PFS CCA (mixed)
RNA 1: B1 RNA 1
RNA 2: B1 RNA 2 with C27G, U53C, C54A
B18: target 2 MT 5'PFS GGA 3'PFS CGU (mixed)
RNA 1: B1 RNA 1
RNA 2: B1 RNA 2 with C27G, G29A, U53G, C54U
B19: target 2 MT 5'PFS GCA 3'PFS AUU (mixed)
RNA 1: B1 RNA 1
RNA 2: B1 RNA 2 with C27G, G28C, G29A, C52A, C54U
B20: target 2 MT 5'PFS AGG 3'PFS UCC (mixed)
RNA 1: B1 RNA 1
RNA 2: B1 RNA 2 with C27A, C52U, U53C
B21: target 2 MT 5'PFS AAC 3'PFS AGC (mixed)
RNA 1: B1 RNA 1
RNA 2: B1 RNA 2 with C27A, G28A, G29C, C52A, U53G
B22: target 2 MT 5'PFS UUG 3'PFS ACG (mixed)
RNA 1: B1 RNA 1
RNA 2: B1 RNA 2 with C27U, G28U, C52A, U53C, C54G
B23: target 2 MT 5'PFS ACA 3'PFS CCG (mixed)
RNA 1: B1 RNA 1
RNA 2: B1 RNA 2 with C27A, G28C, G29A, U53C, C54G
B24: target 2 MT 5'PFS GGA 3'PFS CGA (mixed)
RNA 1: B1 RNA 1
RNA 2: B1 RNA 2 with C27G, G29A, U53G, C54A
B25: target 2 MT 5'PFS UGC 3'PFS UGC (mixed)
RNA 1: B1 RNA 1
RNA 2: B1 RNA 2 with C27U, G29C, C52U, U53G
B26: target 2 MT 5'PFS UGU 3'PFS CGA (mixed)
RNA 1: B1 RNA 1
RNA 2: B1 RNA 2 with C27U, G29U, U53G, C54A
B27: target 2 MT 5'PFS UAA 3'PFS UCG (mixed)
RNA 1: B1 RNA 1
RNA 2: B1 RNA 2 with C27U, G28A, G29A, C52U, U53C, C54G
B28: target 2 MT 5'PFS CAG 3'PFS AAA (mixed)
RNA 1: B1 RNA 1
RNA 2: B1 RNA 2 with G28A, C52A, U53A, C54A
B29: target 2 MT 5'PFS ACG 3'PFS CUU (mixed)
RNA 1: B1 RNA 1
RNA 2: B1 RNA 2 with C27A, G28C, C54U
B30: target 2 MT 5'PFS UAA 3'PFS UCA (mixed)
RNA 1: B1 RNA 1
RNA 2: B1 RNA 2 with C27U, G28A, G29A, C52U, U53C, C54A
B31: target 2 MT 5'PFS GCA 3'PFS AUG (mixed)
RNA 1: B1 RNA 1
RNA 2: B1 RNA 2 with C27G, G28C, G29A, C52A, C54G
B32: target 2 MT 5'PFS UUG 3'PFS UCC (mixed)
RNA 1: B1 RNA 1
RNA 2: B1 RNA 2 with C27U, G28U, C52U, U53C
B33: target 2 MT 5'PFS UAG 3'PFS CUA (mixed)
RNA 1: B1 RNA 1
RNA 2: B1 RNA 2 with C27U, G28A, C54A
B34: target 2 MT 5'PFS UAG 3'PFS CUU (mixed)
RNA 1: B1 RNA 1
RNA 2: B1 RNA 2 with C27U, G28A, C54U
B35: target 1 insU 3' of 2,insU 3' of 1 (mixed)
RNA 1: CACCCGUGCAAAAAUGCAGGGGUCUAAAACUGAGCGGAUAACCUCUCUAUGG
RNA 2: GGGAAUGGAUCCACAUCUACGAAUUCGUACCAUAGAGAGGUUAUCCGCUCUAUCCGAGAUCGGAAGAGCACACGU
B36: target 1 C4A,C6A (mixed)
RNA 1: B35 RNA 1
RNA 2: GGGAAUGGAUCCACAUCUACGAAUUCGUACCAUAGAGAGGUUAUCAGAUCACCGAGAUCGGAAGAGCACACGU
B37: target 1 insG 3' of 22,insA 3' of 7 (mixed)
RNA 1: B35 RNA 1
RNA 2: GGGAAUGGAUCCACAUCUACGAAUUCGUACGCAUAGAGAGGUUAUCACGCUCACCGAGAUCGGAAGAGCACACGU
B38: target 1 insU 3' of 20,insC 3' of 9 (mixed)
RNA 1: B35 RNA 1
RNA 2: B37 RNA 2 with G31C, C32A, A33U, U45C, C46U, A47C

biological target: T1, EsCas13d, nuclease-dead; assay: crRNA (strand 1, pre-loaded); Mg2+; 40 mM Tris-HCl pH 7.5, 150 mM NaCl, 6 mM MgCl2, 1 mM DTT, 0.1% Tween-20, 0.2 mg/ml BSA; 25 C; 10 min per concentration, then washed; conditions: tags: His6-TwinStrep-SUMO cleaved; N-terminal SNAP kept (SNAP-Surface 488); label: 3' end held by stalled T7 RNA polymerase

Going from B1 to B2, the Kd rises from 7.2 ± 0.9 nM to 47 ± 10 nM (6.5-fold).

Going from B3 to B4, the Kd falls from 16.2 ± 1.8 nM to 4.4 ± 0.4 nM (3.7-fold).

First: B5
Second: B6
The Kd of the first is 3.7-fold higher: 14 ± 4 nM for the first, 3.8 ± 0.5 nM for the second.

Compared with B7, B8 is 1.9-fold higher in Kd: 9.8 ± 0.8 nM for the first, 18.5 ± 2.9 nM for the second. The first binds more tightly here.

Compared with B9, B10 is 1.8-fold higher in Kd: 7.2 ± 1 nM for the first, 12.7 ± 3.2 nM for the second.

B11 and B12 are within 1.5-fold of each other in Kd: 15 ± 1.4 nM for the first, 10.5 ± 1.2 nM for the second.

B13 and B14 are within error of each other in Kd: 11.8 ± 1.4 nM for the first, 11.6 ± 0.9 nM for the second.

Compared with B15, B16 is 2.6-fold lower in Kd: 17.3 ± 2.4 nM for the first, 6.7 ± 0.6 nM for the second.

B17 and B18 are within error of each other in Kd: 25 ± 5 nM for the first, 19.9 ± 3.1 nM for the second.

First: B19
Second: B20
The Kd of the first is 2.5-fold lower: 10.3 ± 1 nM for the first, 26 ± 4 nM for the second.

First: B21
Second: B22
The Kd of the first is 4.2-fold lower: 4.4 ± 1.5 nM for the first, 18.5 ± 1.6 nM for the second. The first binds more tightly here.

B23 and B24 are within 1.5-fold of each other in Kd: 6.3 ± 1 nM for the first, 9.1 ± 0.9 nM for the second.

Going from B25 to B26, the Kd falls from 64 ± 18 nM to 10.3 ± 1.7 nM (6.2-fold). The second binds more tightly here.

B27 and B28 are within error of each other in Kd: 6.2 ± 1 nM for the first, 7.5 ± 2 nM for the second.

First: B29
Second: B30
The Kd of the first is 1.6-fold higher: 11.1 ± 2.1 nM for the first, 6.8 ± 1.7 nM for the second.

Going from B31 to B32, the Kd rises from 8.8 ± 0.9 nM to 42 ± 7 nM (4.8-fold). The first binds more tightly here.

B33 and B34 are within error of each other in Kd: 3.6 ± 0.5 nM for the first, 4.4 ± 0.5 nM for the second.

Compared with B35, B36 is 1.7-fold lower in Kd: 10.7 ± 0.6 nM for the first, 6.17 ± 0.31 nM for the second.

B37 and B38 are within 1.5-fold of each other in Kd: 15.2 ± 1 nM for the first, 22.6 ± 1.1 nM for the second.
